{"source": "patent US20030021776", "key": {"[1]": {"tested_on": "SAN 16A (synthetic)", "sequence (chain, as listed by the source)": "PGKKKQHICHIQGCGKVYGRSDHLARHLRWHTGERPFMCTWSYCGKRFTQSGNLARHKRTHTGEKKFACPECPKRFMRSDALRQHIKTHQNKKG", "assay": "EMSA"}, "[2]": {"tested_on": "HUM 17A (VZ+472) (synthetic)", "sequence (chain, as listed by the source)": "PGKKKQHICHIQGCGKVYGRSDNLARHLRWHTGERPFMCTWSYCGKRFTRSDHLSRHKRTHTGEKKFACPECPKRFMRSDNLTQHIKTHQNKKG", "assay": "EMSA", "conditions": "F3 printed RSDNLTZ, listing RSDNLTQ"}, "[3]": {"tested_on": "GATA82Z678 (synthetic)", "sequence (chain, as listed by the source)": "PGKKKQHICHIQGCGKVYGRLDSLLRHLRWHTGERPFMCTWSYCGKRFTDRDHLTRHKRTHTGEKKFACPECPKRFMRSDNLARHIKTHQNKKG", "assay": "EMSA"}, "[4]": {"tested_on": "VOP 30A-4 (VZ+42/+530, mVZ+509) (synthetic)", "sequence (chain, as listed by the source)": "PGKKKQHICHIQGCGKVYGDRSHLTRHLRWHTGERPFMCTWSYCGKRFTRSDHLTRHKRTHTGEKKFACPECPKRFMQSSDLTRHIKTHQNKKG", "assay": "EMSA", "conditions": "170 mM KCl, 1.7 mM MgCl2, Zn"}, "[5]": {"tested_on": "RAT 24A (synthetic)", "sequence (chain, as listed by the source)": "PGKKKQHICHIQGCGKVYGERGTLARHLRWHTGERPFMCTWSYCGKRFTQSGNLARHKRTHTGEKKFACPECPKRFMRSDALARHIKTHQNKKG", "assay": "EMSA"}, "[6]": {"tested_on": "VG 8A (VZ-475) (synthetic)", "sequence (chain, as listed by the source)": "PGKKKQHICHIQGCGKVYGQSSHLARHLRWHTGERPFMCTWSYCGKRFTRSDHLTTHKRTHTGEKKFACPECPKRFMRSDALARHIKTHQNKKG", "assay": "EMSA"}, "[7]": {"tested_on": "HP38 4A (synthetic)", "sequence (chain, as listed by the source)": "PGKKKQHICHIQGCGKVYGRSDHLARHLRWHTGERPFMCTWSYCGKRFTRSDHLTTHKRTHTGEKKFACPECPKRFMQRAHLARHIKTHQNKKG", "assay": "EMSA"}, "[8]": {"biological_target": "VEGF 1D (synthetic) (UniProt P08047)", "assay": "EMSA"}, "[9]": {"biological_target": "VEGF 1 (VZ-8) (synthetic) (UniProt P08047)", "assay": "EMSA"}, "[10]": {"biological_target": "VEGF 1* (synthetic) (UniProt P08047)", "assay": "EMSA"}, "[11]": {"biological_target": "VEGF 1A (synthetic) (UniProt P08047)", "assay": "EMSA"}, "[12]": {"biological_target": "HBV 3 (synthetic) (UniProt P08047)", "assay": "EMSA"}, "[13]": {"biological_target": "ZEN-7A 1 (VZ-573) (synthetic) (UniProt P08047)", "assay": "EMSA"}, "[14]": {"biological_target": "VEGF 1C (synthetic) (UniProt P08047)", "assay": "EMSA"}, "[15]": {"tested_on": "PDF 5A (VZ+590) (synthetic)", "sequence (chain, as listed by the source)": "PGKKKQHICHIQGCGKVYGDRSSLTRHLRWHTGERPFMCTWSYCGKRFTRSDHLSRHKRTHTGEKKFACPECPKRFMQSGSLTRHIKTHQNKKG", "assay": "EMSA"}, "[16]": {"tested_on": "EP10A (synthetic)", "sequence (chain, as listed by the source)": "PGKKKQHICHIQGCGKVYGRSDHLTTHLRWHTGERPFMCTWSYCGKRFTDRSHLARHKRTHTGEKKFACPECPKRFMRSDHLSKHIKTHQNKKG", "assay": "EMSA"}, "[17]": {"tested_on": "VG10A/8A-VP16 (synthetic)", "assay": "cell_activity", "conditions": "mouse VEGF promoter reporter activation in mouse cells"}, "[18]": {"tested_on": "mVZ+57 (VG10A/8A, MVG) (synthetic)", "assay": "EMSA", "conditions": "text printed as Kds of 0.031 nM for the designed ZFPs; 100 mM KCl, 1 mM MgCl2, Zn"}}, "data": [{"sequence": "AKGGAAGGG (double strand) [SAN 16A target]", "values": [{"measurement": "Kd", "setting": "[1]", "value": 1.03, "unit": "nM"}]}, {"sequence": "ARGGGGGAG (double strand) [HUM 17A target]", "values": [{"measurement": "Kd", "setting": "[2]", "value": "< 0.02", "unit": "nM"}]}, {"sequence": "GAGKGKGYG (double strand) [GATA82Z678 target]", "values": [{"measurement": "Kd", "setting": "[3]", "value": 1.8, "unit": "nM"}]}, {"sequence": "GCTGGGGGCK (double strand) [VZ+42/+530 target]", "values": [{"measurement": "Kd", "setting": "[4]", "value": "< 0.02", "unit": "nM"}]}, {"sequence": "GDGGAAGHC (double strand) [RAT 24A target]", "values": [{"measurement": "Kd", "setting": "[5]", "value": "< 0.02", "unit": "nM"}]}, {"sequence": "GDGTGGGGN (double strand) [VG 8A target]", "values": [{"measurement": "Kd", "setting": "[6]", "value": 0.35, "unit": "nM"}]}, {"sequence": "GGDTGGGGG (double strand) [HP38 4A target]", "values": [{"measurement": "Kd", "setting": "[7]", "value": 0.74, "unit": "nM"}]}, {"sequence": "GGGGAGGMT (double strand) [VEGF 1D target]", "values": [{"measurement": "Kd", "setting": "[8]", "value": 2, "unit": "nM"}]}, {"sequence": "GGGGAGGVK (double strand) [VEGF 1 / 1* / 1A target]", "values": [{"measurement": "Kd", "setting": "[9]", "value": 2.83, "unit": "nM"}, {"measurement": "Kd", "setting": "[10]", "value": 3, "unit": "nM"}, {"measurement": "Kd", "setting": "[11]", "value": 0.2, "unit": "nM"}]}, {"sequence": "GGGGGAGGW (double strand) [HBV 3 target]", "values": [{"measurement": "Kd", "setting": "[12]", "value": 30, "unit": "nM"}]}, {"sequence": "GGGGGHGCT (double strand) [ZEN-7A 1 target]", "values": [{"measurement": "Kd", "setting": "[13]", "value": 0.63, "unit": "nM"}]}, {"sequence": "GGGGVGGAT (double strand) [VEGF 1C target]", "values": [{"measurement": "Kd", "setting": "[14]", "value": 1, "unit": "nM"}]}, {"sequence": "GYAGGGGCC (double strand) [PDF 5A target]", "values": [{"measurement": "Kd", "setting": "[15]", "value": 0.23, "unit": "nM"}]}, {"sequence": "KGGGGCTGG (double strand) [EP10A target]", "values": [{"measurement": "Kd", "setting": "[16]", "value": 0.35, "unit": "nM"}]}, {"sequence": "TGAGCGGCGGCAGCGGAG (double strand) [VG10A/8A target]", "values": [{"measurement": "activity", "setting": "[17]", "value": 29, "unit": "fold"}]}, {"sequence": "TGAGCGGCGGCAGCGGAGC (double strand) [mVZ+57 target]", "values": [{"measurement": "Kd", "setting": "[18]", "value": "< 0.031", "unit": "nM"}]}]}
